# Data: patent US20220220204A1 (published 2022)
# Read-outs that look alike come from different tables or passages of the source.
# T1: LAG-3 expressed on CHO-K1 cells (UniProt P18627 23-525)
# T1 chain: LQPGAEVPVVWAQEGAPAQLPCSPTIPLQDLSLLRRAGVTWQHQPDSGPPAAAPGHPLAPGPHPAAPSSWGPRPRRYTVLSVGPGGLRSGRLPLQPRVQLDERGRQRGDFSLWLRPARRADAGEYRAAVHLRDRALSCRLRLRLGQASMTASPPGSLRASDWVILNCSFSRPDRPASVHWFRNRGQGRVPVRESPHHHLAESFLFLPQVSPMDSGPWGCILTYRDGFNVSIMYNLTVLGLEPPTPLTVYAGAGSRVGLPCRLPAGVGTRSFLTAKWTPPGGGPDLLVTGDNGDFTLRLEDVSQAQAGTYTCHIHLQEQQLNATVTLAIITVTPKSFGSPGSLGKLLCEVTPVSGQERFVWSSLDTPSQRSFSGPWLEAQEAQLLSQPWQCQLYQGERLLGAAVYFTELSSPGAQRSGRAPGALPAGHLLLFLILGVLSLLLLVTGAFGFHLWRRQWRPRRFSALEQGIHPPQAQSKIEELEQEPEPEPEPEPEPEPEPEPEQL
# Key:
# Test in all cases: FACS binding
# [1] = target: T2, PD-L1 expressed on CHO-K1 cells (UniProt Q9NZQ7 19-290)
# T2 sequence (Q9NZQ7 19-290): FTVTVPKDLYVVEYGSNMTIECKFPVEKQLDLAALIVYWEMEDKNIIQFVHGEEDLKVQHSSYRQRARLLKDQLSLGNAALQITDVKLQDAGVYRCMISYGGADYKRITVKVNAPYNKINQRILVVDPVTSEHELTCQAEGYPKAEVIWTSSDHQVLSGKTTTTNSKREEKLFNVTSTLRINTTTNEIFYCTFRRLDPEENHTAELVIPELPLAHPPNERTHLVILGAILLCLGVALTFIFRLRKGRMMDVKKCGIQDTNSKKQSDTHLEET
# [2] = target: T1, LAG-3 expressed on CHO-K1 cells
# [3] = target: T2, PD-L1 expressed on CHO-K1 cells; remark: listed apart in the source
# [4] = target: T1, LAG-3 expressed on CHO-K1 cells
EC50 [1] [nM],EC50 [2] [nM],EC50 [3] [nM],EC50 [4] [nM],Binder
0.651,0.0376,0.205,–,"PDL1HCv1 (antibody, V domains shown) VH: EVQLVQSGAEVKKPGASVKVSCKASGYIFTGYGITWVRQAPGQGLEWMGEIFPRRVQTYYSEKFKGRVTMTTDTSTSTAYMELRSLRSDDTAVYYCARDYDPYFALDYWGQGTTVTVSS VL: DIQMTQSPSSLSASVGDRVTITCRASQDVSTAVDWYQQKPGKAPKLLIYSASYRYTGVPDRFSGSGSGTDFTFTISSLQPEDIATYYCQQHYSIPFTFGQGTKLEIKR"
0.311,–,–,8.42,"PDL1HCv5 (antibody, V domains shown) VH: EVQLVQSGAEVKKPGASVKVSCKASGYIFTGYGITWVRQAPGQGLEWMGEIFPRRVQTYYSEKFKGRVTMTADTSTSTAYMELRSLRSDDTAVYYCARDYDPYFALDYWGQGTTVTVSS VL: DIQMTQSPSSLSASVGDRVTITCRASQDVSTAVDWYQQKPGKAPKLLIYSASYRYTGVPDRFSGSGSGTDFTFTISSLQPEDIATYYCQQHYSIPFTFGQGTKLEIKR"
